This data set deals with the molecule itself. In words: crystal structure.

B1: FolM alternative dihydrofolate reductase 1 from Brucella suis (enzyme)
chain: MLNDPEARMVANCPVLVTGGARRIGKAIVEDLASHGFPVAIHCNRSLDEGEAIANRINDSGGNACVVQADLEGDVRGLVKQASDRIGPIRLLVNNASLFQEDKVGALDMALWDRHFAVHLKTPVILAEDMRKALPEDQDGLVVNIIDQRVWKLNPQFFSYTLSKSALWNATRTLAQALAPRIRVNAIAPGPTLPSERQRPEDFERQVSKLPLQRAPELPEFGRTVRYFWENRSITGQMIALDGGQHLAWETPDIAGITE
notes: also called BsFolM; His-BsFolM
For B1, the “stoichiometry N” value amounted to 4.

B2: FolM alternative dihydrofolate reductase 1 from Brucella canis (enzyme)
chain: MVLNDPEARMVANCPVLVTGGARRIGKAIVEDLASHGFPVAIHCNRSLDEGEAIANRINDSGGNACVVQADLEGDVRGLVKQASDRIGPIRLLVNNASLFQEDKVGALDMALWDRHFAVHLKTPVILAEDMRKALPEDQDGLVVNIIDQRVWKLNPQFFSYTLSKTALWNATRTLAQALAPRIRVNAIAPGPTLPSERQRPEDFERQVSKLPLQRAPELPEFGRTVRYFWENRSITGQMIALDGGQHLAWETPDIAELPNK
notes: also called BcFolM; His-BcFolM
As to B2, the “stoichiometry N” value was determined as 4.

As a reminder, the stoichiometry N is a count of units in the complex or per binding partner.
